Assay results published in paper PMC7494816, “Stoichiometry of Rtt109 complexes with Vps75 and histones H3-H4” (Life Science Alliance, 2020).

Columns and labels:
[1] = biological target: the molecule itself; experiment: AUC; sedimentation velocity, van Holde–Weischet analysis; 7.5 μM Vps75 with 0, 0.5 and 1.0 equivalent of Rtt109; 20 mM Tris pH 7.5, 150 mM NaCl, 0.5 mM TCEP, 20°C
[2] = biological target: T1, Xenopus laevis histones H3-H4 (wild type), refolded (Xenopus laevis, UniProt P84233 1-136; P62799 1-103); experiment: AUC; sedimentation velocity; 0.5 or 1 equivalent of H3-H4 or H3DM-H4 titrated against Vps75–Rtt109 reconstituted at 2:2 or 2:1 (relative to 7.5 μM Vps75), with 2:2 mixes of Vps75 and histones for reference; 20 mM Tris pH 7.5, 150 mM NaCl, 0.5 mM TCEP, 20°C; details: both partners purified
T1 construct: histone H3, Xenopus laevis, wild type; histone H4, Xenopus laevis; One H3-H4 dimer is the unit used for concentrations and equivalents; it can form the (H3-H4)2 tetramer; also called (H3-H4)2 tetramer; H3-H4 dimer; source: bought unfolded: the Histone Source at Colorado State University

[3] = biological target: the molecule itself; experiment: AUC; sedimentation velocity, van Holde–Weischet analysis; 7.5 μM Vps75 with 0, 0.5 and 1.0 equivalent of Rtt109; 20 mM Tris pH 7.5, 300 mM NaCl, 0.5 mM TCEP, 20°C
[4] = biological target: the molecule itself; experiment: SEC-MALS; anion exchange peaks P1, P2, P3 of co-expressed, co-purified Vps75–Rtt109, 20 μM; Superdex 200 Increase 10/300 GL; 20 mM Tris–HCl pH 7.5, 300 mM NaCl, 0.5 mM TCEP

Row | Binder | stoichiometry N [1] | binding result [2] | stoichiometry N [3] | stoichiometry N [4]
1 | Vps75 (Saccharomyces cerevisiae), individually expressed and purified (natural protein, UniProt P53853 1-264, looked up, Vps75, histone chaperone, Saccharomyces cerevisiae; also called Vps75 dimer; Vps75 tetramer; source: individually expressed and purified as previously described (Park et al, 2008)) MMSDQENENEHAKAFLGLAKCEEEVDAIEREVELYRLNKMKPVYEKRDAYIDEIAEFWKIVLSQHVSFANYIRASDFKYIDTIDKIKVEWLALESEMYDTRDFSITFHFHGIEGDFKEQQVTKVFQIKKGKDDQEDGILTSEPVPIEWPQSYDSINPDLIKDKRSPEGKKKYRQGMKTIFGWFRWTGLKPGKEFPHGDSLASLFSEEIYPFCVKYYAEAQRDLEDEEGESGLSADGDSEDDDGSLGEVDLPLSDEEPSSKKRKV | 4 chains of Vps75 (tetramer) | binds | 2 chains of Vps75 (dimer) | –
2 | Vps75 co-expressed with his–Rtt109 from pRSFDuet-1 (natural protein, Saccharomyces cerevisiae, UniProt P53853 1-264, looked up, Vps75, Saccharomyces cerevisiae; multiple cloning site 2 of pRSFDuet-1; source: E. coli Rosetta (DE3) pLysS, co-expressed with his–Rtt109, in lysate; co-purified (HisTrap, MonoQ)) MMSDQENENEHAKAFLGLAKCEEEVDAIEREVELYRLNKMKPVYEKRDAYIDEIAEFWKIVLSQHVSFANYIRASDFKYIDTIDKIKVEWLALESEMYDTRDFSITFHFHGIEGDFKEQQVTKVFQIKKGKDDQEDGILTSEPVPIEWPQSYDSINPDLIKDKRSPEGKKKYRQGMKTIFGWFRWTGLKPGKEFPHGDSLASLFSEEIYPFCVKYYAEAQRDLEDEEGESGLSADGDSEDDDGSLGEVDLPLSDEEPSSKKRKV | – | – | – | 2 chains of Vps75 (dimer)
